The results in this text go back to PMC12510807, “MUC1 drives ferroptosis resistance in ICC via Src‐mediated FSP1 deubiquitination and myristoylation” (Clinical and Translational Medicine, 2025).

The experiment concerns the target T1, recombinant Src (UniProt P12931 1-536).
T1 construct: the printed kinase domain limits 249-536 fit the 536-residue human protein; the tag on Src may differ between the three pull-downs; also called purified Src; source: recombinant, purified
As to the kind of experiment: pull-down; in vitro GST pull-down with recombinant or purified proteins; which partner bore GST is not told. The settings on record: both partners purified.

B1: purified NMT1 (enzyme, UniProt P30419 1-496, looked up)
chain: MADESETAVKPPAPPLPQMMEGNGNGHEHCSDCENEEDNSYNRGGLSPANDTGAKKKKKKQKKKKEKGSETDSAQDQPVKMNSLPAERIQEIQKAIELFSVGQGPAKTMEEASKRSYQFWDTQPVPKLGEVVNTHGPVEPDKDNIRQEPYTLPQGFTWDALDLGDRGVLKELYTLLNENYVEDDDNMFRFDYSPEFLLWALRPPGWLPQWHCGVRVVSSRKLVGFISAIPANIHIYDTEKKMVEINFLCVHKKLRSKRVAPVLIREITRRVHLEGIFQAVYTAGVVLPKPVGTCRYWHRSLNPRKLIEVKFSHLSRNMTMQRTMKLYRLPETPKTAGLRPMETKDIPVVHQLLTRYLKQFHLTPVMSQEEVEHWFYPQENIIDTFVVENANGEVTDFLSFYTLPSTIMNHPTHKSLKAAYSFYNVHTQTPLLDLMSDALVLAKMKGFDVFNALDLMENKTFLEKLKFGIGDGNLQYYLYNWKCPSMGAEKVGLVLQ
notes: Purified NMT1 protein of the GST pull-down with Src; source: purified
With B1, the binding result is on record as “binds”.
